This is an account of results in article PMC9121386.

The assay has as its target 80S ribosome (purified 80S ribosomal fraction from H1299 cells) (human (endogenous in H1299)).

Sequence of fragile histidine triad (Fhit), wild type (P49789 whole entry): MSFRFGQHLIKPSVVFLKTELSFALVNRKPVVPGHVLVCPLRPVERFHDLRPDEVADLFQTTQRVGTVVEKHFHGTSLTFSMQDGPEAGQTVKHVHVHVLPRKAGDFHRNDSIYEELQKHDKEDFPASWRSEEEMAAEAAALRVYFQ

Substance “fragile histidine triad (Fhit), wild type (from UniProt P49789 1-147) (enzyme)” yielded a turnover of Ap3A by Fhit (RP-HPLC) with 80S ribosomes pre-incubated with RNaseA of under 5%.
